Measurements as given in patent US20240116985A1 (published 2024).
Starred links: 1 amine or outer side, 2 acyl side, 3 side chain; linkers in the order of their positions; H or OH if unused. Positions of bridges follow the written chain, without caps; N, C: chain ends. Non-standard residues stand in square brackets, D forms with d. Primed or numbered codes have the meaning given here. (4CF3PhAc)GA = (S)-2-amino-3-(N-(carboxymethyl)-2-(4-(trifluoromethyl)phenyl)acetamido)propanoic acid, O=C(Cc1ccc(C(F)(F)F)cc1)N(CC(=O)[*:3])C[C@H](N[*:1])C(=O)[*:2]; (PfPhAc)GA = (S)-2-amino-3-(N-(carboxymethyl)-2-(perfluorophenyl)acetamido)propanoic acid, O=C(Cc1c(F)c(F)c(F)c(F)c1F)N(CC(=O)[*:3])C[C@H](N[*:1])C(=O)[*:2]; (MePipAc)GA = (S)-2-amino-3-(N-(carboxymethyl)-2-(4-methylpiperazin-1-yl)acetamido)propanoic acid, CN1CCN(CC(=O)N(CC(=O)[*:3])C[C@H](N[*:1])C(=O)[*:2])CC1; (4AcMePip)GA = (S)-2-amino-3-(N-(carboxymethyl)-1-methylpiperidine-4-carboxamido)propanoic acid, CN1CCC(C(=O)N(CC(=O)[*:3])C[C@H](N[*:1])C(=O)[*:2])CC1; (NdiMeButC)GAbu = (S)-2-amino-4-(N-(carboxymethyl)-4-(dimethylamino)butanamido)butanoic acid, CN(C)CCCC(=O)N(CC[C@H](N[*:1])C(=O)[*:2])CC(=O)[*:3]; PyrS2″ = (S)-3-amino-1-((pent-4-en-1-yloxy)carbonyl)pyrrolidine-3-carboxylic acid (stapling residue), C=CCCCOC(=O)N1CC[C@@](N[*:1])(C(=O)[*:2])C1; (NdiMeButC)GA = (S)-2-amino-3-(N-(carboxymethyl)-4-(dimethylamino)butanamido)propanoic acid, CN(C)CCCC(=O)N(CC(=O)[*:3])C[C@H](N[*:1])C(=O)[*:2]; (Me2NPr)GA = (S)-2-amino-3-(N-(carboxymethyl)-3-(dimethylamino)propanamido)propanoic acid, CN(C)CCC(=O)N(CC(=O)[*:3])C[C@H](N[*:1])C(=O)[*:2]; (MorphAc)GA = (S)-2-amino-3-(N-(carboxymethyl)-2-morpholinoacetamido)propanoic acid, O=C(CN1CCOCC1)N(CC(=O)[*:3])C[C@H](N[*:1])C(=O)[*:2]; B5(4) = 2,2-bis(4-pentenyl)glycine = 2-amino-2-(pent-4-en-1-yl)hept-6-enoic acid (stitching residue), C=CCCCC(CCCC=C)(N[*:1])C(=O)[*:2]; PyrS2 = (S)-3-amino-1-((pent-4-en-1-yloxy)carbonyl)pyrrolidine-3-carboxylic acid, C=CCCCOC(=O)N1CC[C@@](N[*:1])(C(=O)[*:2])C1; (Pic)GA = (S)-2-amino-3-(N-(carboxymethyl)picolinamido)propanoic acid, O=C(c1ccccn1)N(CC(=O)[*:3])C[C@H](N[*:1])C(=O)[*:2]; B5(22) = 2-amino-2-(pent-4-en-1-yl)hept-6-enoic acid (two alkene side chains), C=CCCCC(CCCC=C)(N[*:1])C(=O)[*:2]; B5(3) = 2,2-bis(4-pentenyl)glycine (stitching residue), C=CCCCC(CCCC=C)(N[*:1])C(=O)[*:2]; Phe(3-COOH) = N[C@@H](Cc1cccc(C(=O)O)c1)C(=O)O; 2F3MeF = Cc1cccc(C[C@H](N[*:1])C(=O)[*:2])c1F; Phe(3-Cl) = N[C@@H](Cc1cccc(Cl)c1)C(=O)O; Phe(4-Cl) = N[C@@H](Cc1ccc(Cl)cc1)C(=O)O; Bta = N[C@@H](Cc1csc2ccccc12)C(=O)O; αAllylPro = C=CC[C@@]1(C(=O)O)CCCN1; tBuAla = CC(C)(C)C[C@H](N)C(=O)O; 2Thi = N[C@@H](Cc1cccs1)C(=O)O; 3Thi = N[C@@H](Cc1ccsc1)C(=O)O; S8 = C=CCCCCCC[C@](C)(N)C(=O)O; PyrS2(4) = not defined here

T1: full-length beta-Catenin (Uniprot ID P35222) (Homo sapiens (Human), UniProt P35222 1-781)
T1 construct: the AlphaScreen used a Histidine (Nickel Chelate) detection kit, so a His tag is likely but not described; also called B-Catenin; bCat
T1 sequence: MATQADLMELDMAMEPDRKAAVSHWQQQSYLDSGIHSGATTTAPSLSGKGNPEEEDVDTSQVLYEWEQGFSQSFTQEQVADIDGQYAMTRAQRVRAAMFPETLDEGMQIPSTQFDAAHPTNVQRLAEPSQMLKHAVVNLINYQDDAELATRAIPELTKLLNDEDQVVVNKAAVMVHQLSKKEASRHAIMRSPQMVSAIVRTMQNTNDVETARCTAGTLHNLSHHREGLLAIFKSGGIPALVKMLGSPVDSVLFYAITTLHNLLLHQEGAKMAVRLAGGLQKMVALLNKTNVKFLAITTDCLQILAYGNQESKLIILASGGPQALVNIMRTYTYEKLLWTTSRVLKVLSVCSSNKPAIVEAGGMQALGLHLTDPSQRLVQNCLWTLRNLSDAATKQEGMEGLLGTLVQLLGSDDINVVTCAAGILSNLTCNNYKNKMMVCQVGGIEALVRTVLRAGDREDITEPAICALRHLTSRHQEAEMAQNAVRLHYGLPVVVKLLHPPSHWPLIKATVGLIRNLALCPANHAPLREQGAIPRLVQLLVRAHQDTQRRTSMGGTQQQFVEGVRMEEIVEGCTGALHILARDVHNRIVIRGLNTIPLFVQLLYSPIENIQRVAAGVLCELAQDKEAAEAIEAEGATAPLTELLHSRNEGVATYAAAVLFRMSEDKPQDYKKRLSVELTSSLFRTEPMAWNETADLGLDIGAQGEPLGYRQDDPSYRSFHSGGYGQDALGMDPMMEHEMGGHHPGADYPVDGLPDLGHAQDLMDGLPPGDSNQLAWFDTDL

T2: B-cat-Halo (UniProt P35222 1-781)
T2 sequence (looked up): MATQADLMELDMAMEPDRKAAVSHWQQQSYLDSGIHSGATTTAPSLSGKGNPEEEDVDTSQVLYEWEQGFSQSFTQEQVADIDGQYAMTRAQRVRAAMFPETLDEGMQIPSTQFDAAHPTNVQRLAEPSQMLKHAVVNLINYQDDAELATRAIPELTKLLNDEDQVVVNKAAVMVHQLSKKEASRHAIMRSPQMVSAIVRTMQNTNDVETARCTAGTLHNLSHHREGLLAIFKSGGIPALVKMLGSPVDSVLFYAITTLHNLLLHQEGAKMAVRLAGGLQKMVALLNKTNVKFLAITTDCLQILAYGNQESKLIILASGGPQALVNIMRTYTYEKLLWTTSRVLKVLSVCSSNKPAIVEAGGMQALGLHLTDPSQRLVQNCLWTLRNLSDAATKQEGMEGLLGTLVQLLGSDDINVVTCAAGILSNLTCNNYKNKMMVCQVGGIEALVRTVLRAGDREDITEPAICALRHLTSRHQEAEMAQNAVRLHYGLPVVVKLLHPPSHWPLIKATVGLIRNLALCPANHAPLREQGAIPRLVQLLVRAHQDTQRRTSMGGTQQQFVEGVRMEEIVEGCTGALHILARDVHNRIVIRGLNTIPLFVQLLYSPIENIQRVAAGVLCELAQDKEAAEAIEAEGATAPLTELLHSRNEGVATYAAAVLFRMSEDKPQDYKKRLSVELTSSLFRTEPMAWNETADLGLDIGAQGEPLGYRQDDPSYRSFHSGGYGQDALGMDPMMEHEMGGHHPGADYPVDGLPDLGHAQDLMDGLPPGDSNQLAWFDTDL


biological target: T1, full-length beta-Catenin (Uniprot ID …); assay: FP competition vs 5FAM-TCF4(10-53) probe on full-length beta-catenin
Summary of the method: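 Fluorescence polarization was read in duplicate after the plate sat 60 minutes at 20° C. shielded from light. Values come from fitting to a 1:1 binding model with hill slope.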

Binder	EC50 [µM]
Ac-[αAllylPro]DA[B5(4)]DDAA[2Thi]V[S8]FWQ-NH2 (staple 1-4, 4-11, Ac-PL3-Asp-Ala-B5-Asp-Asp-Ala-Ala-2Thi-Val-S8-Phe-Trp-Gln-NH2; stapled peptide composition) [I-325]	1.31

biological target: T1, full-length beta-Catenin (Uniprot ID …); assay: AlphaScreen competition vs biotin-TCF4(10-53) on full-length beta-catenin
Summary of the method: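 Titrated peptide was preincubated 15 minutes at 20° C, then donor and acceptor beads were added for 60 minutes at 20° C protected from light. Reads were done in duplicate, and data were fitted to a 1:1 binding model with Hill slope; concentrations are final.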

Binder	EC50 [µM]
Ac-[αAllylPro]DA[B5(4)]DDAA[2Thi]V[S8]FWQ-NH2 (staple 1-4, 4-11, Ac-PL3-Asp-Ala-B5-Asp-Asp-Ala-Ala-2Thi-Val-S8-Phe-Trp-Gln-NH2; stapled peptide composition) [I-325]	0.053

biological target: T2, B-cat-Halo; assay: cell-based or functional assay

Binder	NanoBRET Abs IC50 [µM]
Ac-[αAllylPro]D[tBuAla][B5(3)]D[Phe(3-COOH)]AAFL[PyrS2″][2F3MeF][Phe(3-Cl)]S-NH2 (staple 1-4, 4-11) [I-2226]	10.6
Ac-[αAllylPro]D[tBuAla][B5(3)]D[Phe(3-COOH)]QAFL[PyrS2″][2F3MeF][Phe(3-Cl)]A-NH2 (staple 1-4, 4-11) [I-2227]	6.3
Ac-[αAllylPro]D[tBuAla][B5(22)]D[(Me2NPr)GA]AAFL[PyrS2][3Thi][Bta]Q-NH2 (staple 1-4, 4-11) [I-2234]	> 20
Ac-[αAllylPro]D[tBuAla][B5(22)]D[(PfPhAc)GA]AAFL[PyrS2][3Thi][Bta]Q-NH2 (staple 1-4, 4-11) [I-2241]	17.7
Ac-[αAllylPro]D[tBuAla][B5(3)]D[Phe(3-COOH)]AAFL[PyrS2″][3Thi][Phe(3-Cl)]Q-NH2 (staple 1-4, 4-11) [I-2224]	14.2
Ac-[αAllylPro]D[tBuAla][B5(22)]D[(MorphAc)GA]AAFL[PyrS2][3Thi][Bta]Q-NH2 (staple 1-4, 4-11) [I-2239]	31.9
Ac-[αAllylPro]D[tBuAla][B5(22)]D[(4CF3PhAc)GA]AAFL[PyrS2][3Thi][Bta]Q-NH2 (staple 1-4, 4-11) [I-2236]	15.3
Ac-[αAllylPro]D[tBuAla][B5(22)]D[(Pic)GA]AAFL[PyrS2][3Thi][Bta]Q-NH2 (staple 1-4, 4-11) [I-2237]	24.3
Ac-[αAllylPro]D[tBuAla][B5(3)]D[(NdiMeButC)GA]AAFL[PyrS2″][3Thi][Bta]Q-NH2 (staple 1-4, 4-11) [I-2233]	> 20
Ac-[αAllylPro]D[tBuAla][B5(3)]D[(PfBz)GA]AAFL[PyrS2(4)][3Thi][Bta]Q-NH2 (staple 1-4, 4-11; reading uncertain) [I-2242]	21.4
Ac-[αAllylPro]D[tBuAla][B5(22)]D[(MePipAc)GA]AAFL[PyrS2][3Thi][Bta]Q-NH2 (staple 1-4, 4-11) [I-2240]	> 20
Ac-[αAllylPro]D[tBuAla][B5(3)]D[Phe(3-COOH)]AAFL[PyrS2″][2F3MeF][Phe(4-Cl)]S-NH2 (staple 1-4, 4-11) [I-2222]	11.7
Ac-[αAllylPro]D[tBuAla][B5(3)]D[Phe(3-COOH)]QAFV[PyrS2(4)][3Thi][Phe(3-Cl)]A-NH2 (staple 1-4, 4-11; reading uncertain) [I-2225]	7.8
Ac-[αAllylPro]D[tBuAla][B5(22)]D[(NdiMeButC)GAbu]AAFL[PyrS2][3Thi][Bta]Q-NH2 (staple 1-4, 4-11) [I-2243]	25.2
Ac-[αAllylPro]D[tBuAla][B5(22)]D[(4AcMePip)GA]AAFL[PyrS2][3Thi][Bta]Q-NH2 (staple 1-4, 4-11) [I-2235]	> 20
